# Assay results taken from paper PMC7055384, “The resolution revolution in cryoEM requires high-quality sample preparation: a rapid pipeline to a high-resolution map of yeast fatty acid synthase” (IUCrJ, 2020).
# Target: the molecule itself
# Assay: cryo-EM structure; FAS (0.3 mg/ml, buffer 100 mM sodium phosphate pH 6.5) incubated with 1 mM NADPH and 1 mM malonyl-CoA for 5 min, on hydrophilized graphene-coated Quantifoil grids; D3 symmetry applied; 3.1 Å
protein,measurement,value
"yeast fatty acid synthase subunit α (FAS2) (enzyme, S. cerevisiae, additional density at Ser1440 suggesting phosphorylation, fatty acid synthase subunit α, S. cerevisiae, encoded by FAS2 on a pRS shuttle vector; holds the PPT domain at its C-terminus; this follows from DM4 holding the PPT domain, which it places in subunit α) MKPEVEQELAHILLTELLAYQFASPVRWIETQDVFLKDFNTERVVEIGPSPTLAGMAQRTLKNKYESYDAALSLHREILCYSKDAKEIYYTPDPSELAAKEEPAKEEAPAPTPAASAPAPAAAAPAPVAAAAPAAAAAEIADEPVKASLLLHVLVAHKLKKSLDSIPMSKTIKDLVGGKSTVQNEILGDLGKEFGTTPEKPEETPLEELAETFQDTFSGALGKQSSSLLSRLISSKMPGGFTITVARKYLQTRWGLPSGRQDGVLLVALSNEPAARLGSEADAKAFLDSMAQKYASIVGVDLSSAASASGAAGAGAAAGAAMIDAGALEEITKDHKVLARQQLQVLARYLKMDLDNGERKFLKEKDTVAELQAQLDYLNAELGEFFVNGVATSFSRKKARTFDSSWNWAKQSLLSLYFEIIHGVLKNVDREVVSEAINIMNRSNDALIKFMEYHISNTDETKGENYQLVKTLGEQLIENCKQVLDVDPVYKDVAKPTGPKTAIDKNGNITYSEEPREKVRKLSQYVQEMALGGPITKESQPTIEEDLTRVYKAISAQADKQDISSSTRVEFEKLYSDLMKFLESSKEIDPSQTTQLAGMDVEDALDKDSTKEVASLPNKSTISKTVSSTIPRETIPFLHLRKKTPAGDWKYDRQLSSLFLDGLEKAAFNGVTFKDKYVLITGAGKGSIGAEVLQGLLQGGAKVVVTTSRFSKQVTDYYQSIYAKYGAKGSTLIVVPFNQGSKQDVEALIEFIYDTEKNGGLGWDLDAIIPFAAIPEQGIELEHIDSKSEFAHRIMLTNILRMMGCVKKQKSARGIETRPAQVILPMSPNHGTFGGDGMYSESKLSLETLFNRWHSESWANQLTVCGAIIGWTRGTGLMSANNIIAEGIEKMGVRTFSQKEMAFNLLGLLTPEVVELCQKSPVMADLNGGLQFVPELKEFTAKLRKELVETSEVRKAVSIETALEHKVVNGNSADAAYAQVEIQPRANIQLDFPELKPYKQVKQIAPAELEGLLDLERVIVVTGFAEVGPWGSARTRWEMEAFGEFSLEGCVEMAWIMGFISYHNGNLKGRPYTGWVDSKTKEPVDDKDVKAKYETSILEHSGIRLIEPELFNGYNPEKKEMIQEVIVEEDLEPFEASKETAEQFKHQHGDKVDIFEIPETGEYSVKLLKGATLYIPKALRFDRLVAGQIPTGWNAKTYGISDDIISQVDPITLFVLVSVVEAFIASGITDPYEMYKYVHVSEVGNCSGSGMGGVSALRGMFKDRFKDEPVQNDILQESFINTMSAWVNMLLISSSGPIKTPVGACATSVESVDIGVETILSGKARICIVGGYDDFQEEGSFEFGNMKATSNTLEEFEHGRTPAEMSRPATTTRNGFMEAQGAGIQIIMQADLALKMGVPIYGIVAMAATATDKIGRSVPAPGKGILTTAREHHSSVKYASPNLNMKYRKRQLVTREAQIKDWVENELEALKLEAEEIPSEDQNEFLLERTREIHNEAESQLRAAQQQWGNDFYKRDPRIAPLRGALATYGLTIDDLGVASFHGTSTKANDKNESATINEMMKHLGRSEGNPVIGVFQKFLTGHPKGAAGAWMMNGALQILNSGIIPGNRNADNVDKILEQFEYVLYPSKTLKTDGVRAVSITSFGFGQKGGQAIVVHPDYLYGAITEDRYNEYVAKVSAREKSAYKFFHNGMIYNKLFVSKEHAPYTDELEEDVYLDPLARVSKDKKSGSLTFNSKNIQSKDSYINANTIETAKMIENMTKEKVSNGGVGVDVELITSINVENDTFIERNFTPQEIEYCSAQPSVQSSFAGTWSAKEAVFKSLGVKSLGGGAALKDIEIVRVNKNAPAVELHGNAKKAAEEAGVTDVKVSISHDDLQAVAVAVSTKK",binding result,binds
